Here are results for 1 molecule from patent publication US20180021429A1, “ANTICANCER AGENTS OR ANTIMETASTATIC AGENTS USING FSTL1 AND COMBINATION DRUG THEREOF” (PHARMA FOODS INTERNATIONAL CO., LTD., priority 2015, published 2018).

For assay [1], the system named is mouse lymphoma EL4. In words: In vivo lymphoma model (Example 23). The conditions noted are these: intraperitoneal 10 mg/kg on days 3 and 6; vs control antibody. The method, then:
The drug efficacy of the anti-FSTL1 antibody was evaluated according to Examples 17 to 20 using mouse lymphoma EL4, which is a cancer type having enhanced FSTL1 expression.
1. Experiment Group (n=5) • 1. Mouse lymphoma EL4+control IgG (anti-DNP mAb) • 2. Mouse lymphoma EL4+anti-FSTL1 mAb (#6-55)
• Day 0: transplantation of tumor cells (1×10^6 cells subcutaneously & 1×10^6 cells intravenously) • Day 3: intraperitoneal administration of the antibody (first dose, corresponding to 200 μg/mouse=10 mg/kg) • Day 6: intraperitoneal administration of the antibody (second dose, corresponding to 200 μg/mouse=10 mg/kg) • Day 15: various immunological assays
• Effects on the growth of subcutaneous tumor (calculation of tumor volume by tumor size measurement): measured 3, 6, and 10 days after tumor implantation

Assay [2] relates to human pancreatic cancer cell line Panc1. In words: Action on Panc1 under FSTL1 stimulation (Example 26). The conditions noted are these: Panc1 stimulated with FSTL1 for 3 days, antibody 5 μg/ml; FIG. 114B. Type of assay: cell-based. An excerpt:
(§1) Specifically, the influence of the anti-FSTL1 antibody on proliferative capacity and invasive capacity was studied using various human tumor cells, regardless of the presence or absence of the expression of Snail or FSTL1. […] After culture for 3 days, the number of cells per culture system was counted to evaluate the proliferative capacity of the cells. […] Then, the number of cells that permeated the membranes was counted under a microscope to evaluate the invasive capacity of the cells.
Next, in order to examine how surrounding tumor cells were changed in a cancer microenvironment by receiving FSTL1 produced by Snail/FSTL1-expressing cells, and how the anti-FSTL1 antibody acts thereon, a human pancreatic cancer cell line Panc1 confirmed to express Snail or FSTL1 only slightly was stimulated with FSTL1 for 3 days. The anti-FSTL1 antibody (#6-55, 5 μg/ml) or a control antibody (aHema, 5 μg/ml) was added to this culture system, and subsequent change in cell function was analyzed in the same way as in the preceding paragraph. […]

In assay [3] the test system is Panc1, Panc1-snail+, MIAPaCa, MDA231, Hs294T. In words: Proliferative capacity and invasive capacity of various human tumor cells. Type of assay: cell-based. The conditions noted are these: particularly in highly metastatic tumor cell line highly expressing Snail.
From the text: as §1, §1

Assay [4] has as its system mouse breast cancer 4T1 cells. In words: Mouse breast cancer 4T1 cell-transplanted model (Example 21). The conditions noted are these: BALB/c mice; intraperitoneal 10 mg/kg on days 4 and 7; FIG. 109. The assay is classed as in vivo. The method, then: Procedures and methods of the experiment were basically performed according to Examples 17 to 20 under substantially the same conditions as in the bone metastasis model experiments of Examples 17 to 20. Drug efficacy evaluation was conducted using mouse tumor models other than Snail-positive tumor bone metastasis models. The drug efficacy of the anti-FSTL1 antibody was evaluated using cancer-bearing models of BALB/c mice different in strain from the C57BL/6 mice used in the preceding tests. Changes were made as follows. • Day 0: transplantation of tumor cells (5×10^5 cells subcutaneously & 5×10^5 cells intravenously) • Days 4 and 7: intraperitoneal administration of the antibody (10 mg/kg) • Day 14: drug efficacy evaluation (subcutaneous tumor growth)
The tumor volumes of the mice were measured 4, 7, 11, and 14 days after tumor implantation.

B1: #6-55: chicken-mouse chimeric anti-FSTL1 antibody clone; variable regions SEQ ID NO: 783 (light), 785 (heavy) (antibody, V domains shown)
VH: AVTLDESGGGLQTPGGALSLVCKGSGFTFTSVTMQWVRQAPGKGLEWVASVCSGSSTYYAPAVKGRATISRDNGQSTVRLQLSNLRPEDTGTYYCAKIAGRARWSCTSAAYNIDAWGHGTEVIVSS
VL: ASTQPSSVSAIPGETVKITCSGGGNNYGWYQQRSPGSAPVTVIYYNDNRPSNIPSRFSGSTSGSTSTLTITGVQADDEAIYYCGSWDSNTDSGIFGAGTTLTVL
modifications: mouse constant regions
As to B1, in assay [1], the subcutaneous tumor growth entry is “strongly suppressed”. Further, in assay [2], the cell growth entry was “reduced” and the “enhancement of invasive capacity by FSTL1” value is given as “canceled”. Also, in assay [3] (Matrigel-coated transwell chamber, 4 hours), the invasive capacity result is recorded as “strongly suppressed”. The proliferative capacity result in assay [3] (antibody 5 μg/ml, 3 days) is “strongly suppressed”. Also, the “growth of 4T1 subcutaneous tumor” value in assay [4] was “significantly suppressed”.
